Assay results: article PMC2967539

Target: human dipeptidyl peptidase IV (human) (UniProt P27487)
Sequence of UniProt P27487 (P27487 whole entry): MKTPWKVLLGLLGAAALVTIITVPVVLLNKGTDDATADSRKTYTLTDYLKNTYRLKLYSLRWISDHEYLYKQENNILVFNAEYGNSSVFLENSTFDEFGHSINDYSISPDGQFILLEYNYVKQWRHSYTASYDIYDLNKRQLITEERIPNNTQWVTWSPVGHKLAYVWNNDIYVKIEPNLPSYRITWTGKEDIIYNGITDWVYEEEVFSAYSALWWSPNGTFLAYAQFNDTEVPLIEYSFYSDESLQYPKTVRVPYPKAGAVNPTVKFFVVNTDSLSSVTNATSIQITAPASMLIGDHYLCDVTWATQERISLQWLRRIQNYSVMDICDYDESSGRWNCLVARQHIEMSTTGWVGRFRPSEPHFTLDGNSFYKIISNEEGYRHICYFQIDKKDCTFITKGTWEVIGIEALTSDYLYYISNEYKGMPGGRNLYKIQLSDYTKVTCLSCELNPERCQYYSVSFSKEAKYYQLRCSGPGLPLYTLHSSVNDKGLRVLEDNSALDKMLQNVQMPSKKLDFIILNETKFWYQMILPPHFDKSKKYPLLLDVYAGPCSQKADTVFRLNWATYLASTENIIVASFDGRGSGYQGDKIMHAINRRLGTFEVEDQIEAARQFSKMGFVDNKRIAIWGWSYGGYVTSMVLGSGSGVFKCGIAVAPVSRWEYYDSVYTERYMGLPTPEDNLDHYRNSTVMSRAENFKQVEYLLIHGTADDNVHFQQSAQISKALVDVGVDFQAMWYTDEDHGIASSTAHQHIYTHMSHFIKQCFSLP

Tat-1-86 protein (Immuno-Diagnostics) (from UniProt P04610 1-86) (natural protein)
cleavage of GLP1 (31.25 uM) by purified DPPIV (16 nM) in the presence of 1 uM Tat-1-86, MALDI-TOF mass spectrometry, after 5 min at 37 °C (all GLP1 cleaved within 5 min without Tat): 40%
